Experimental findings from article PMC4968834, “Generation and Characterization of an IgG4 Monomeric Fc Platform” (PLoS ONE, 2016) are described below.

Where two headings read alike, the source gives them in different places.

Assay [1] addresses T1, Recombinant human FcRn (soluble) (human, UniProt P55899 24-297; P61769 21-119, biotin (biotinylated FcRn; which chain and site not stated)). Kind of assay: BLI; Octet384; biotinylated FcRn captured on streptavidin biosensors, Fc variants in solution; 100 mM MES pH 6.0, 3 mg/ml BSA, 0.05% Tween 20; steady-state analysis, apparent KD, avidity binding format. (In general: BLI is a label-free optical method that tracks binding on a fibre tip over time.)

The target of assay [2] is Clone 4 (C4), monomeric IgG4 Fc with YTE. Kind of assay: BLI; Octet384; binding of inactive IdeS (C94S) to Fc; who was immobilised not told.
Assay [3] has as its target T1, Recombinant human FcRn (soluble). Kind of assay: cell-based or functional assay.

T1 sequence (P55899 24-297, chain 1 of 2): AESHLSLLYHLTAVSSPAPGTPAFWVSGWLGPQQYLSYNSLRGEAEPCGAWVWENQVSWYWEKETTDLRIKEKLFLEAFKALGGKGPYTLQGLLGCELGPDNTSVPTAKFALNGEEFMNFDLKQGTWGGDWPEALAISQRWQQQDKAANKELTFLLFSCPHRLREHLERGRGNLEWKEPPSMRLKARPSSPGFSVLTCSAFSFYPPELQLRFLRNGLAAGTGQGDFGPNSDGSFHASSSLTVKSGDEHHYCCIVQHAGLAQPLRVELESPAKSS
T1 sequence (P61769 21-119, chain 2 of 2): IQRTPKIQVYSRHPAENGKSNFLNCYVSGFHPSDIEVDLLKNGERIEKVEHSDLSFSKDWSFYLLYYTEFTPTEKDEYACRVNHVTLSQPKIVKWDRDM

As to IgG1 YTE (antibody), in assay [1], the Kd is 39 nM. Still for that read-out and setting: in the case of IgG1 mAb control (antibody) it was 270 nM. With IgG4 wildtype Fc (domain or fragment), the Kd in assay [1] was 140 nM. As for “Inactive form of IgG-degrading enzyme of S. pyogenes (IdeS, C94S)”, the Kd in assay [2] was 3000 nM.

B1: Onart-Fab-C4 (Fab of Onartuzumab fused to monomeric Fc C4) (Fc fusion)
chain 1: EVQLVESGGGLVQPGGSLRLSCAASGYTFTSYWLHWVRQAPGKGLEWVGMIDPSNSDTRFNPNFKDRFTISADTSKNTAYLQMNSLRAEDTAVYYCATYRSYVTPLDYWGQGTLVTVSSASTKGPSVFPLAPSSKSTSGGTAALGCLVKDYFPEPVTVSWNSGALTSGVHTFPAVLQSSGLYSLSSVVTVPSSSLGTQTYICNVNHKPSNTKVDKKVEPKSCPEFLGGPSVFLFPPKPKDTLYITREPEVTCVVVDVSQEDPEVQFNWYVDGVEVHNAKTKPREEQFNSTYRVVSVLTVLHQDWLNGKEYKCKVSNKGLPSSIEKTISKAKGQPREPQVYTFPPSQEEMTKNQVSLRCLVKGFYPSDIAVEWESNGQPENNYKTTKPVLDSDGSFRLESRLTVDKSRWQEGNVFSCSVMHEALHNHYTQKSLSLSLGK
chain 2: DIQMTQSPSSLSASVGDRVTITCKSSQSLLYTSSQKNYLAWYQQKPGKAPKLLIYWASTRESGVPSRFSGSGSGTDFTLTISSLQPEDFATYYCQQYYAYPWTFGQGTKVEIKRTVAAPSVFIFPPSDEQLKSGTASVVCLLNNFYPREAKVQWKVDNALQSGNSQESVTEQDSKDSTYSLSSTLTLSKADYEKHKVYACEVTHQGLSSPVTKSFNRGEC
Consider B1, for which, in assay [3], the “terminal half-life (T1/2) in hFcRn transgenic mice, 2.5 mg/kg intravenous” value worked out at 21 h. In assay [1] (both partners purified), the Kd came out at 160 nM.
